Reference: the supplement of paper PMC12764529
± gives the half width of the 95% confidence interval.

How the values were obtained:
[1] = folding stability dG unfold from trypsin proteolysis; higher = more stable
Procedure, shortened: (§1)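 Sequencing followed digestion of designed mini-proteins with trypsin and chymotrypsin, each at 11 concentrations in threefold dilutions together with a no-protease condition. The mini-proteins were under 80 residues, had no cysteine, sat in a PA-tagged cDNA display construct, and were kept only if AlphaFold2 dimer inter-PAE was above 15. From the counts, Bayesian fitting gave K50, and unfolding free energy was derived against a sequence-predicted unfolded-state K50 and a shared folded-state K50, per protease or combined.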

[2] = folding stability dG unfold from chymotrypsin proteolysis; higher = more stable
Procedure, shortened: as §1

[3] = folding stability dG unfold (combined trypsin and chymotrypsin); higher = more stable
Procedure, shortened: as §1

Row | Sequence | folding stability dG unfold [1] | folding stability dG unfold [2] | folding stability dG unfold [3]
1 | SAGGPNWMQMEIWLPPGNPEKIEKIIRDKGWKVEDIKVKEVNPNNGWMRVTIYMPGPWPMDEIKEAVRSAGG [r13_725_TrROS] | 1.96 ± 0.11 kcal/mol | 3.6 ± 0.16 kcal/mol | 3.15 ± 0.25 kcal/mol
2 | SAGGSAGGSAGGMILRDPNRDIWTADFPDSSGNLVSSREFPPGEIEEVLAEGNVSAEVLPSAGGSAGGSAGG [r11_159_JUSTAS] | 0.362 ± 0.015 kcal/mol | 0.297 ± 0.059 kcal/mol | 0.315 ± 0.043 kcal/mol
3 | SAGGSAGGSAGGMFKTYDSLEDVKKNETGDGAKGKVFVVAPIPELENAVLVLVEIRPPDSAGGSAGGSAGGS [r10_126_TrMRF] | -0.219 ± 0.069 kcal/mol | 0.504 ± 0.11 kcal/mol | 0.231 ± 0.088 kcal/mol
4 | SAGGSAPFKAELVSYDPETGVATFKLTLPDGSEVTVVATLDPDGVPHVKAYFPDGSVYDIEEILASSAGGSA [r15_832_TrMRF] | 2.28 ± 0.076 kcal/mol | 3.893 ± 0.022 kcal/mol | 3.59 ± 0.1 kcal/mol
5 | SADKVMIMFRSPQTFRRILREALKTDKPVYLMFPPKWMDELKELGFPNVKIEPQKNPNGGPYYMFELPVSAG [r14_127_TrROS] | 1.83 ± 0.044 kcal/mol | 1.75 ± 0.12 kcal/mol | 1.79 ± 0.18 kcal/mol
6 | SAGGSAGGSKIKIIVPKEKEEEAERLAKELKEKGEIPEVEIEVVESEEEAKELEEKADLVIVVSAGGSAGGS [r12_679_TrROS_Hall] | -0.562 ± 0.43 kcal/mol | 1.11 ± 0.19 kcal/mol | 0.805 ± 0.31 kcal/mol
7 | SAGMEEKLVEAVFEEGPLEEAVEFIRDFLESEGYEVEPLEVEVLSVEETEEGPRVRVRARVLVRPPDASAGG [r19_325_TrMRF] | 1.11 ± 0.081 kcal/mol | 1.52 ± 0.16 kcal/mol | 1.34 ± 0.18 kcal/mol
8 | SAGGSMTLTFTDPSTGTTTTVTKLPNGKYVVTTTTTTSTNPEVSPTGETVGPATTTTTTVLPPAELSAGGSA [r2_195_JUSTAS] | 2 ± 0.12 kcal/mol | 1.79 ± 0.024 kcal/mol | 1.86 ± 0.065 kcal/mol
9 | SGSPSDDIVTTPLPGPSERATFPDGSSISRSPAGVTTTTSPTSITTTTTTPSATVTSTTTSLPPPSPSAPSA [r9_901_JUSTAS] | -0.696 ± 0.034 kcal/mol | 0.184 ± 0.015 kcal/mol | -0.0591 ± 0.07 kcal/mol
10 | SAGYEIVKEIAEELGFPVEIDRIEYDPDHGTIKFTARMRPKDGKKYRVQIMIHVPPENGNVDIELEYVPSAG [r5_929_TrROS] | 2.09 ± 0.074 kcal/mol | 2.6 ± 0.16 kcal/mol | 2.56 ± 0.2 kcal/mol
11 | SAGGMDPDDLKGMPPEQAKDIVRDWIREYMQERNPNMPPGMKITDVPVEVRDPDNGKEIEVKVEIENYSAGG [r13_555_TrROS] | -0.936 ± 0.37 kcal/mol | -0.00917 ± 0.33 kcal/mol | -0.242 ± 0.33 kcal/mol
12 | SAGGSAKKLKITIVADSEEEARRLAEELARLLRELLPDGSELEVEIEVRVFRPPPPPLPSLEELLASAGGSA [r15_663_TrROS_Hall] | 3.2 ± 0.21 kcal/mol | 3.83 ± 0.12 kcal/mol | 3.49 ± 0.18 kcal/mol
13 | SAGGSAGGSVKPGEKVLVRVRNPATGRWEEVVATVNEDGSITIYNKETGKTETIPLKDIELVPSAGGSAGGS [r12_726_TrROS_Hall] | 4.6 ± 0.17 kcal/mol | 4.25 ± 0.055 kcal/mol | 4.37 ± 0.088 kcal/mol
14 | SASSETFEIEVKVKLFFRDPEKGKLVEREFDAIVKVTVNPETGEVKVEVYFKPLGKPVTITLPPGASIESAG [r14_587_TrMRF] | 3.13 ± 0.2 kcal/mol | 4.54 ± 0.16 kcal/mol | 4.26 ± 0.21 kcal/mol
15 | SAGGSAGGSAGGSMEITVETYPEVPLVRFTLPGGELVLLPVPPDVPEEEIRALAEALLASAGGSAGGSAGGS [r10_33_JUSTAS] | 0.897 ± 0.025 kcal/mol | 0.833 ± 0.15 kcal/mol | 0.874 ± 0.12 kcal/mol
16 | SAKMTAEELAKKLAEELAKKLGVKVKVEVEVKVEEKDGKLVIEVKIKVYNENGELIEEIKIEIVLPKEESAG [r14_708_TrROS_Hall] | 2.92 ± 0.35 kcal/mol | 3.84 ± 0.26 kcal/mol | 3.51 ± 0.28 kcal/mol
17 | SAGGSAGGSAPKIIVVKPEDIVEAVKKADPNEKVLLFDPETGEIYEITPDKMEFIEKIPPGESAGGSAGGSA [r18_246_TrMRF] | 0.0456 ± 0.13 kcal/mol | 0.884 ± 0.039 kcal/mol | 0.466 ± 0.22 kcal/mol
18 | SAGGSAGGPETIPLRFGEEEVLLVLSPEDPDRFLAYFPAEGRVYLYRLLPEGLEFLREVPAEELSAGGSAGG [r6_915_TrMRF] | 2.1 ± 0.066 kcal/mol | 2.03 ± 0.13 kcal/mol | 2.07 ± 0.1 kcal/mol
19 | SMLSEMPPEELAERIARELGLVGAEVEAVRVGDVLLVPLRLRDPVRDEVRLLVLLVVPEDDGRVLLTDLSSA [r9_1042_TrMRF] | 1.46 ± 0.027 kcal/mol | 2.5 ± 0.029 kcal/mol | 2.16 ± 0.091 kcal/mol
20 | SAGGSAGGSPKIEIEQDPNGWWRVKIRPPDGKKRPINIPPGDPEKILDEAEENGWKIDEIEPWSAGGSAGGS [r12_891_TrROS] | -0.045 ± 0.2 kcal/mol | 0.631 ± 0.14 kcal/mol | 0.404 ± 0.12 kcal/mol
21 | SAGGSAGGSAGKPKEIFVFDKEIDADEAVALLPDEVKEVVVFDIEEAREKGGILIKAVVDSAGGSAGGSAGG [r11_1002_TrMRF] | -1.18 ± 0.61 kcal/mol | 0.898 ± 0.1 kcal/mol | 0.54 ± 0.14 kcal/mol
